Patent publication US20060234940

B1: DP IV activity of the human serum (protein)
chain: SRKTYTLTDYLKNTYRLKLYSLRWISDHEYLYKQENNILVFNAEYGNSSVFLENSTFDEFGHSINDYSISPDGQFILLEYNYVKQWRHSYTASYDIYDLNKRQLITEERIPNNTQWVTWSPVGHKLAYVWNNDIYVKIEPNLPSYRITWTGKEDIIYNGITDWVYEEEVFSAYSALWWSPNGTFLAYAQFNDTEVPLIEYSFYSDESLQYPKTVRVPYPKAGAVNPTVKFFVVNTDSLSSVTNATSIQITAPASMLIGDHYLCDVTWATQERISLQWLRRIQNYSVMDICDYDESSGRWNCLVARQHIEMSTTGWVGRFRPSEPHFTLDGNSFYKIISNEEGYRHICYFQIDKKDCTFITKGTWEVIGIEALTSDYLYYISNEYKGMPGGRNLYKIQLSDYTKVTCLSCELNPERCQYYSVSFSKEAKYYQLRCSGPGLPLYTLHSSVNDKGLRVLEDNSALDKMLQNVQMPSKKLDFIILNETKFWYQMILPPHFDKSKKYPLLLDVYAGPCSQKADTVFRLNWATYLASTENIIVASFDGRGSGYQGDKIMHAINRRLGTFEVEDQIEAARQFSKMGFVDNKRIAIWGWSYGGYVTSMVLGSGSGVFKCGIAVAPVSRWEYYDSVYTERYMGLPTPEDNLDHYRNSTVMSRAENFKQVEYLLIHGTADDNVHFQQSAQISKALVDVGVDFQAMWYTDEDHGIASSTAHQHIYTHMSHFIKQCFSLP
B2: porcine kidney DP IV, wild type (protein)
chain: DSRRTYTLTDYLKSTFRVKFYTLQWISDHEYLYKQENNILLFNAEYGNSSIFLENSTFDELGYSTNDYSVSPDRQFILFEYNYVKQWRHSYTASYDIYDLNKRQLITEERIPNNTQWITWSPVGHKLAYVWNNDIYVKNEPNLSSQRITWTGKENVIYNGVTDWVYEEEVFSAYSALWWSPNGTFLAYAQFNDTEVPLIEYSFYSDESLQYPKTVRIPYPKAGAENPTVKFFVVDTRTLSPNASVTSYQIVPPASVLIGDHYLCGVTWVTEERISLQWIRRAQNYSIIDICDYDESTGRWISSVARQHIEISTTGWVGRFRPAEPHFTSDGNSFYKIISNEEGYKHICHFQTDKSNCTFITKGAWEVIGIEALTSDYLYYISNEHKGMPGGRNLYRIQLNDYTKVTCLSCELNPERCQYYSASFSNKAKYYQLRCFGPGLPLYTLHSSSSDKELRVLEDNSALDKMLQDVQMPSKKLDVINLHGTKFWYQMILPPHFDKSKKYPLLIEVYAGPCSQKVDTVFRLSWATYLASTENIIVASFDGRGSGYQGDKIMHAINRRLGTFEVEDQIEATRQFSKMGFVDDKRIAIWGWSYGGYVTSMVLGAGSGVFKCGIAVAPVSKWEYYDSVYTERYMGLPTPEDNLDYYRNSTVMSRAENFKQVEYLLIHGTADDNVHFQQSAQLSKALVDAGVDFQTMWYTDEDHGIASNMAHQHIYTHMSHFLKQCFSLP

Biological target: peptides of the growth hormone releasing factor (GRF) family

| Protein | hydrolysis (MALDI-TOF MS, capillary zone electrophoresis) |
| --- | --- |
| B1 | All peptides were hydrolyzed by porcine DP IV, recombinant human DP IV or DP IV activity of the human serum |
| B2 | All peptides were hydrolyzed by porcine DP IV, recombinant human DP IV or DP IV activity of the human serum |
